Publication PMC3362647

Tested on: GST-p180-Lys (p180 lysine-rich region)
Assay: EMSA
Conditions: PBS with 10 ug/ml denatured yeast tRNA, room temperature, 20 min; native 10% PAGE (19:1) in TBE; pH not stated

Q: How did the Kd turn out when human insulin SSCR RNA was run?
A: 800 nM
